These results are taken from publication doi:10.1101/2023.09.08.556779, “Molecular model of a bacterial flagellar motor in situ reveals a “parts-list” of protein adaptations to increase torque” (bioRxiv, 2024).

The target in series [1] is PflB (C. jejuni 81–176 (endogenous in minicells)). The experiment in a line: cryo-EM structure; in situ single particle analysis of C. jejuni ΔflhG ΔflaAB minicells, C17 symmetry; focused refinement of the periplasmic scaffold and first basal disk ring to 7.9 Å; AlphaFold models docked or flexibly fitted.
In series [2] the target is PflC, recombinant (C. jejuni). The experiment in a line: SEC + other: mass photometry; analytical SEC on ENrich SEC 650 in 1× PBS, calibrated with 15–600 kDa standards; mass photometry in PBS.
Series [3] deals with the molecule itself. The experiment in a line: cryo-EM structure; in situ single particle analysis of C. jejuni ΔflhG ΔflaAB minicells, C17 symmetry; focused refinement of the periplasmic scaffold and first basal disk ring to 7.9 Å; AlphaFold models docked or flexibly fitted.
Series [4] concerns the molecule itself. The experiment in a line: SEC + other: mass photometry; analytical SEC on ENrich SEC 650 in 1× PBS, calibrated with 15–600 kDa standards; mass photometry in PBS.

In general, stoichiometry N refers to a count of units in the complex or per binding partner. On to “PflB (from UniProt A0A6F9L7Y3 1-820) (natural protein)”, for which the stoichiometry N in series [1] worked out at 17.

Consider PflC, recombinant (natural protein), for which the stoichiometry N in series [2] was determined as 2.

B1: FliL (natural protein)
chain: MDEELENEETKKKKGGSLVIIIVILLFVLLLSIMGVIAWLISSSSSDESEVKEAPKEEAKADKPKVSAPTQRGSDFANIGPMYPLDPFTLNLLSDSGSRYVKCTIELEQNSELLKPELDKKVPVIRDIIIRTLTAKTFEEVSTQKGKERLKDELVGKINEILTDGFIKNVYFTDFVVS
notes: FliL of Campylobacter jejuni 81–176; an arc of four in each asymmetric unit of the proximal disk; source: endogenous, C. jejuni 81–176 (minicells imaged in situ; lysate of formaldehyde-crosslinked cells)
With B1, the “stoichiometry N” value in series [3] is 4.

B2: PflCN (Δ236–349), recombinant (domain or fragment)
chain: GIERPKFEDFLAGYERNKASMLNYEGMPAFALSENLLAVLKQPNTKLNKYVKYDPFLNLYLVRTDFSLIPTPMGDEEKLTRNDWVGIWDPNKPYIGHIKYLAQNIDEKDQLDFNSKIGLLGTPCCEMMGIALNNSSFIGNRYLKHFMKYNDVYWGDIGVDFVVRENKIYVNNVRKNPQFLINDQVISVDGLPANDLRKLNEKILFADRGSTLYFQVLRDNSGGDGKFQFFIRLTK
With B2, the “stoichiometry N” value in series [4] turned out to be 2.
